Measured values reported in patent US20220396612A1 (UNIVERSIT DE TOURS, published 2022).

Columns and labels:
Assay in all cases: ELISA on denatured VLP (carbonate pH 10.6 + DTT; threshold OD>0.5)
[1] = molecular target: T1, denatured VLPs of BK polyomavirus VP-1 protein, serotype IV (BK virus (BKPyV), serotype IV, UniProt P14996 1-362)
T1 construct: also called IV denatured
T1 chain: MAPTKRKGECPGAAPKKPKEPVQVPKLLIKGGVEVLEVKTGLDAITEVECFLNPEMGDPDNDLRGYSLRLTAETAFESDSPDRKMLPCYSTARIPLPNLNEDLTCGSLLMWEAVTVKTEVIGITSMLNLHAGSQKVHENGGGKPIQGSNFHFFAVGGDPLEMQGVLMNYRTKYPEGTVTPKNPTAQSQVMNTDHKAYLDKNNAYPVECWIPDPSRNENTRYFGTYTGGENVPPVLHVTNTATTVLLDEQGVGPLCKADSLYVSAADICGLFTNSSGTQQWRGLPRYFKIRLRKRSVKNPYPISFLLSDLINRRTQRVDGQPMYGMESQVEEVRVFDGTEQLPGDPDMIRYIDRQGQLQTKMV
Experimental: (§1) The wells were then blocked for 1 hour at +37° C. with a PBS/SVF mixture. After dilution in a dilution buffer containing SVF, PBS and Tween® 20, the individual culture supernatants or purified antibodies were added for 1 hour at +37° C. The wells were washed four times in a row with Wash Buffer and a secondary anti-mouse peroxidase antibody was added to the 1/2000 dilution for 1 hour at +37° C. The wells were washed again four times in a row and the substrate was added for 30 minutes at room temperature. A stop solution was added and then each well was read by measuring the absorbance at 492 nm with a spectrophotometer. The value obtained for the average of the control wells (PBS in the first step) was subtracted from the optical density values obtained for each well (detection threshold: OD>0.5).

[2] = molecular target: T2, denatured VLPs of BK polyomavirus VP-1 protein, serotype Ib2 (BK virus (BKPyV), serotype Ib2, UniProt P03088 1-362)
T2 construct: also called Ib2 denatured
T2 chain: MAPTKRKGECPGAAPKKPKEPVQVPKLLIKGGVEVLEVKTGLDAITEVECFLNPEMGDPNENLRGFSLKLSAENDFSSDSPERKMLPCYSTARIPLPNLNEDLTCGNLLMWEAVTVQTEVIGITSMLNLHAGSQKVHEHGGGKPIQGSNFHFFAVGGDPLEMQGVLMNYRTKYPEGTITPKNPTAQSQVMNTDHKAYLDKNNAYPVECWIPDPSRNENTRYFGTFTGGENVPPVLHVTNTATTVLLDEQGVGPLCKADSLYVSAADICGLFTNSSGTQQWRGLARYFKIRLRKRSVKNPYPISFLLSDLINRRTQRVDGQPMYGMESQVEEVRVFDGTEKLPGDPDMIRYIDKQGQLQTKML
Experimental: as §1

[3] = molecular target: T3, denatured VLPs of BK polyomavirus VP-1 protein, serotype II (BK virus (BKPyV), serotype II, UniProt P14996 1-362)
T3 construct: also called II denatured
T3 chain: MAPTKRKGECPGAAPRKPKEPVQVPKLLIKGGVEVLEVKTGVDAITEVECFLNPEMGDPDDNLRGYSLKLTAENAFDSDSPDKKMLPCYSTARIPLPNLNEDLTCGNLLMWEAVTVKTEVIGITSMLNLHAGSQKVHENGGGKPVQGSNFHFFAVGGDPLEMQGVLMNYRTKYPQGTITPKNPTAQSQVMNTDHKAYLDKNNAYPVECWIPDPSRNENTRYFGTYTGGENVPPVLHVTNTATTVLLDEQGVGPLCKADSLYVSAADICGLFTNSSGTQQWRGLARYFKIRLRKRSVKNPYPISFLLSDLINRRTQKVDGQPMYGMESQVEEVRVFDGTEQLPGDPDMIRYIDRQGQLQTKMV
Experimental: as §1

B1: monoclonal antibody ‘18A2’ derived from hybridoma 18A2 (antibody, V domains shown)
VH: DVQLQESGPGLVKPSQSLSLTCSVTGYSITSGYYWNWIRQFPGNKLEWMGYISYDGSNNYNPSLKNRISITRDTSKNQFFLKLNSVTTEDTATYYCARWEGTTDYWGQGTTLTVSS
VL: not shown
notes: Mouse hybridoma antibody
How did the “OD 492 nm” value [1] turn out when B1 was run?
The value was 0.709 OD.

What about the “OD 492 nm” value [2] of the same binder?
The value was 0.16 OD.

What about the “OD 492 nm” value [3] of the same binder?
Its value is 0.63 OD.
